Data on six molecules can be found in paper PMC8892516, “Intragenic suppressors unravel the role of the SCREAM ACT-like domain for bHLH partner selectivity in stomatal development” (Proceedings of the National Academy of Sciences of the …, 2022).

First the molecules themselves.
T1: GST-fused SCRMΔC (1-404) (Arabidopsis thaliana, UniProt Q9LSE2 1-404)
T1 construct: SCREAM (SCRM, ICE1), Arabidopsis thaliana, At3G26744, residues 1-404; GST kept for loading on anti-GST probes; also called GST SCRMΔC; SCRM1ΔC; source: E. coli BL21, purified (glutathione agarose resin); not shown: GST, N-terminal, kept
T1 sequence (looked up): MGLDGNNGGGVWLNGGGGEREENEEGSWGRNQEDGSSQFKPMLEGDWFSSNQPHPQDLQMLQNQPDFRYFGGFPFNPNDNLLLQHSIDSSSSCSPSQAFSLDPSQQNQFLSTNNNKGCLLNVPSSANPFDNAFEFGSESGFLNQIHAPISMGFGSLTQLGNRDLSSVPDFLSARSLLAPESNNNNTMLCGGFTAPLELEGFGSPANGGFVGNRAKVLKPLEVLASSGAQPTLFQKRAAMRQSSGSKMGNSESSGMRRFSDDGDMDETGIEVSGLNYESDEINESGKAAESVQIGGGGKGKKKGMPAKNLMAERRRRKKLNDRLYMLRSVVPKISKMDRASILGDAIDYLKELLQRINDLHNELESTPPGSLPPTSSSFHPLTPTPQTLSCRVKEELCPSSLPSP

T2: GST-fused SCRM (1-494) (Arabidopsis thaliana, UniProt Q9LSE2 1-494)
T2 construct: SCREAM (SCRM, ICE1), Arabidopsis thaliana, At3G26744, residues 1-494; GST kept for loading on anti-GST probes; also called GST SCRM; GST-tagged SCRM; source: E. coli BL21, purified (glutathione agarose resin); not shown: GST, N-terminal, kept
T2 sequence (looked up): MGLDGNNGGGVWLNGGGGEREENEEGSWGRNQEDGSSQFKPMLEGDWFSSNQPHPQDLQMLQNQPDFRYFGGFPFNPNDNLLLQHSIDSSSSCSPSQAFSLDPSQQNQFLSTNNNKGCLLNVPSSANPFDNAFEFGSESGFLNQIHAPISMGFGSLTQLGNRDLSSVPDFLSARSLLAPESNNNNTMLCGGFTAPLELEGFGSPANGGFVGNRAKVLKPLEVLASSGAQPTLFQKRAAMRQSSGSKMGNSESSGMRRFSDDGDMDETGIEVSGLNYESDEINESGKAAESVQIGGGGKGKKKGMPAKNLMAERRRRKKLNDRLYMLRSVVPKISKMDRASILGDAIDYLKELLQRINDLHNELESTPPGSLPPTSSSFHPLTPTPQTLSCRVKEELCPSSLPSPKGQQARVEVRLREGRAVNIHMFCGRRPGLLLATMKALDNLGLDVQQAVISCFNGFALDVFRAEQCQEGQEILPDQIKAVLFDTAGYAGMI

T3: SCRM (1-494), recombinant (Arabidopsis thaliana, UniProt Q9LSE2 1-494)
T3 construct: SCREAM (SCRM, ICE1), Arabidopsis thaliana, At3G26744, residues 1-494; the purification methods tell thrombin cleavage; source: E. coli BL21, purified (glutathione resin, thrombin, Superdex-200); not shown: GST, N-terminal, cleaved
T3 sequence (looked up): T2 sequence (looked up)

T4: SCRM ACTL (405-494) (Arabidopsis thaliana, UniProt Q9LSE2 405-494)
T4 construct: SCREAM (SCRM, ICE1), Arabidopsis thaliana, At3G26744, ACT-like domain, residues 405-494; also called SCRM ACTL domain; source: E. coli BL21, purified (glutathione resin, thrombin, Superdex-200); not shown: GST, N-terminal, cleaved
T4 sequence (looked up): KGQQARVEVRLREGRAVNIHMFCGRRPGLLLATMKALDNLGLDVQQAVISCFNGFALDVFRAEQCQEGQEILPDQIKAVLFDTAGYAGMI

T5: SPCH-ACTL (285-364) (Arabidopsis thaliana, UniProt Q700C7 285-364)
T5 construct: also called SPCH ACTL domain; source: E. coli BL21, purified (glutathione resin, thrombin, Superdex-200); not shown: GST, N-terminal, cleaved
T5 sequence (looked up): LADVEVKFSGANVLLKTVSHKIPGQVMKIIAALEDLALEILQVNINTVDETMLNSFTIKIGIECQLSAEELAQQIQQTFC

T6: FAMA (ΔNFAMA) (Arabidopsis thaliana, Limits not printed. Start set by analogy with the printed ΔNSPCH 98-364 (one residue before the annotated bHLH). Runs to the native C-terminus. Tag or fusion carrier omitted.)
T6 chain: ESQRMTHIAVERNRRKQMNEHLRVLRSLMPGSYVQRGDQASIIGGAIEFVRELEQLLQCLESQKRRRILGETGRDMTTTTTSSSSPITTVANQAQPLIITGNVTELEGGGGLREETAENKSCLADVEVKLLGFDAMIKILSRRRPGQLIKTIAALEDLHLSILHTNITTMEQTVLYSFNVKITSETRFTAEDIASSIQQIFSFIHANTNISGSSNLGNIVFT

T7: SPCH (ΔNSPCH, 98-364) (Arabidopsis thaliana, UniProt Q700C7 98-364)
T7 construct: the only recombinant SPCH with bHLH domain that the methods list is ΔNSPCH (98-364); source: E. coli BL21, purified (glutathione resin, thrombin, Superdex-200); not shown: GST, N-terminal, cleaved
T7 sequence (looked up): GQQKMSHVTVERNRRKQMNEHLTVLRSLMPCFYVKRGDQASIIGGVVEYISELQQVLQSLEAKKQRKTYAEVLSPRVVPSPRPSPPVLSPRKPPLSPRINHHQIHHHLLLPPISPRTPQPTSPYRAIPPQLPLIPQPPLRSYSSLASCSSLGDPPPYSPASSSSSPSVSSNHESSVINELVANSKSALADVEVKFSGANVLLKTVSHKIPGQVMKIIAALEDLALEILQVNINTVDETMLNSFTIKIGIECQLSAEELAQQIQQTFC

B1: ΔNFAMA, recombinant (domain or fragment)
chain: T6 chain
modifications: Limits not printed. Start set by analogy with the printed ΔNSPCH 98-364, which starts one residue before its annotated bHLH (99); FAMA bHLH is 194-245. Runs to the native C-terminus, including the …
B2: MUTE-ACTL (114-202) (domain or fragment, Arabidopsis thaliana, UniProt Q9M8K6 114-202, looked up)
chain: HANVEAKISGSNVVLRVVSRRIVGQLVKIISVLEKLSFQVLHLNISSMEETVLYFFVVKIGLECHLSLEELTLEVQKSFVSDEVIVSTN
notes: MUTE, Arabidopsis thaliana, ACT-like domain, residues 114-202; source: E. coli BL21, purified (glutathione resin, thrombin, Superdex-200); not shown: GST, N-terminal, cleaved
B3: SCRM ACTL L484F (405-494) (domain or fragment, Arabidopsis thaliana, UniProt Q9LSE2 405-494, looked up)
chain: T4 sequence (looked up) with L80F
notes: SCREAM (SCRM, ICE1), Arabidopsis thaliana, At3G26744, C-terminal ACT-like domain, residues 405-494, with L484F (the methods print L485F); also called SCRM L484F ACTL; source: E. coli BL21, purified (glutathione resin, Superdex-200)
B4: SCRMΔC (1-404), GST removed (domain or fragment, Arabidopsis thaliana, UniProt Q9LSE2 1-404, looked up)
chain: T1 sequence (looked up)
notes: SCREAM (SCRM, ICE1), Arabidopsis thaliana, At3G26744, residues 1-404 (lacks the C-terminal ACTL domain); Used for ITC; the methods tell thrombin cleavage of the GST-fused proteins in general, not for ITC by name; also called SCRM1ΔC; source: E. coli BL21, purified (glutathione resin, thrombin, Superdex-200); not shown: GST, N-terminal, cleaved
B5: SCRMΔC (1-404), recombinant (domain or fragment, Arabidopsis thaliana, UniProt Q9LSE2 1-404, looked up)
chain: T1 sequence (looked up)
notes: SCREAM (SCRM, ICE1), Arabidopsis thaliana, At3G26744, residues 1-404; the purification methods tell thrombin cleavage; also called SCRM1ΔC; source: E. coli BL21, purified (glutathione resin, thrombin, Superdex-200); not shown: GST, N-terminal, cleaved
B6: ΔNSPCH (98-364), recombinant (domain or fragment, Arabidopsis thaliana, UniProt Q700C7 98-364, looked up)
chain: T7 sequence (looked up)
notes: BLI and ITC name it only SPCH; ΔNSPCH (98-364) is the only long recombinant SPCH construct that the methods list; also called purified SPCH; source: E. coli BL21, purified (glutathione resin, thrombin, Superdex-200); not shown: GST, N-terminal, cleaved

What all share (settings): both partners purified
The target in one assay is T1, GST-fused SCRMΔC (1-404). The assay is described as follows: BLI; Octet Red96; anti-GST probes loaded with 500 nM GST-SCRM or GST-SCRMΔC; SPCH/MUTE/FAMA as analyte at 3.12-200 nM; 30 °C; 1x PBS with 0.02% Tween 20; no DNA; 1:1 model.
The target of the next assay is T2, GST-fused SCRM (1-494). The assay is described as above.
The target of assay [1] is B5. Put plainly: ITC; Malvern PEAQ-ITC, 25 °C, PBS pH 7.4; 40 μM SCRM/SCRMΔC injected into 4 μM SPCH/MUTE/FAMA; single binding site model.
Assay [2] concerns the target T3, SCRM (1-494), recombinant. The description is as above.
Another assay concerns the target T4, SCRM ACTL (405-494). The assay is described as follows: ITC; Malvern PEAQ-ITC, 25 °C, PBS pH 7.4; 150 μM SCRM ACTL/SCRM L484F ACTL injected into 15 μM SPCH ACTL/MUTE ACTL.
A further assay deals with T5, SPCH-ACTL (285-364). Put plainly: ITC; Malvern PEAQ-ITC; 150 µM SCRM ACTL/SCRM L484F ACTL injected into 15 µM SPCH ACTL/MUTE ACTL; PBS, pH 7.2 (Table S3; methods: pH 7.4); 25 °C; means of two experiments.
In a further assay the target is T6, FAMA (ΔNFAMA). Put plainly: ITC; Malvern PEAQ-ITC; 40 µM SCRM/SCRMΔC injected into 4 µM SPCH/MUTE/FAMA; PBS, pH 7.2 (Table S1; methods: pH 7.4); 25 °C; single binding site model; means of two experiments.
The target in the next assay is T7, SPCH (ΔNSPCH, 98-364). The description is as above.
The assay “ΔNFAMA, recombinant” addresses B1. Put plainly: ITC; Malvern PEAQ-ITC, 25 °C, PBS pH 7.4; 40 μM SCRM/SCRMΔC injected into 4 μM SPCH/MUTE/FAMA; single binding site model.
The target of assay [3] is B6. Described as above.

Residue numbers refer to the chain shown, from its start. Names and notes keep the numbering of the source.

As for B1, the Kd with GST-fused SCRMΔC (1-404) was found to be 52 ± 3.6 nM; with GST-fused SCRM (1-494) it was 8.2 ± 2.1 nM; in assay [1], 68 ± 5.2 nM; in assay [2], 9.6 ± 1.4 nM.
B2 showed a Kd in the assay with SCRM ACTL (405-494) of 5100 nM.
In the case of B3, in the assay with SPCH-ACTL (285-364), the “stoichiometry N” value was 0.85.
Regarding B4, the “stoichiometry N” value with FAMA (ΔNFAMA) turned out to be 0.96; with SPCH (ΔNSPCH, 98-364), 0.95.
Consider B5, for which the “stoichiometry N” value in the assay with ΔNFAMA, recombinant stood at 1; in assay [3] it was 1.
For the molecule B6, the Kd turned out to be 68 ± 5.5 nM in the assay with GST-fused SCRMΔC (1-404), 5.2 ± 1.1 nM with GST-fused SCRM (1-494), 61 ± 4.2 nM in [1] and 6.5 ± 1.6 nM in [2].
